We go through one substance from patent US20230181718A1.

The assay deals with Endo-H treated SApNPs. Description: BLI, Octet RED96; Endo-H treated against wildtype SApNPs.

In turn, VRC01 (antibody) gave a fold higher binding than the wildtype SApNPs of 2 to 3.5 fold.
